Where no end group is shown, it is not given here.
T1: C2 domain of FVIII (Homo sapiens (Human), UniProt P00451 2192-2351)
T1 construct: Negative control
T1 sequence: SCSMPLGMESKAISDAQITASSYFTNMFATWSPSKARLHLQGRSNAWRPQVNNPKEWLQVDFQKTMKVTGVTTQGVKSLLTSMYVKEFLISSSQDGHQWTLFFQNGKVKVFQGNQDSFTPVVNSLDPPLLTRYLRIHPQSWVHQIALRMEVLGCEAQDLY


Experiments:
C2 domain of FVIII = molecular target: T1, C2 domain of FVIII; test: BLI (Octet Red), biotinylated peptide on streptavidin sensor
recombinant FIX = molecular target: T2, recombinant FIX (UniProt P00740 47-461); test: as above
T2 construct: Negative control; also called factor IX
T2 sequence (P00740 47-461 limits assumed): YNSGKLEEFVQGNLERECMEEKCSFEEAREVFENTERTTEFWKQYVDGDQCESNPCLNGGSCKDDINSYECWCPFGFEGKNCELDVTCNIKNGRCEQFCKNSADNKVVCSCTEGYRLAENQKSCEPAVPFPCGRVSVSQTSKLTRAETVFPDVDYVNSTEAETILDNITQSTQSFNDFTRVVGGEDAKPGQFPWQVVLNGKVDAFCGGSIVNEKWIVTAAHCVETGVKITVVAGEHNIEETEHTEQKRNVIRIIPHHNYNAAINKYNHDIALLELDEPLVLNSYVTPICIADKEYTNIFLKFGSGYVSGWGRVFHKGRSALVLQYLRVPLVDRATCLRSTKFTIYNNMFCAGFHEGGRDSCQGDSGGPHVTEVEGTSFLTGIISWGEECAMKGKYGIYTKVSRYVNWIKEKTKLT

Binder	binding result (C2 domain of FVIII)	binding result (recombinant FIX)
PIRIMIHSLIMNRPT (also: biotinylated (position not given here), random peptide of the Octet screening) [SEQ ID NO 4]	no binding	no binding
RVPLVDRATCLRSTKFTIYNN (also: biotinylated (position not given here), random peptide of the Octet screening) [SEQ ID NO 20]	no binding	no binding
LSGKNGPWVKMIMWG (also: biotinylated (position not given here), random peptide of the Octet screening) [SEQ ID NO 11]	no binding	no binding
IADKEYTNIFLKFGVSVLVDRATCLRSTKFTIYNN (also: biotinylated (position not given here), random peptide of the Octet screening) [SEQ ID NO 21]	no binding	no binding
RDERMKLIRNFSPIM (also: biotinylated (position not given here), random peptide of the Octet screening) [SEQ ID NO 7]	no binding	no binding
NKLTSGDRPGLWFMV (also: biotinylated (position not given here), random peptide of the Octet screening) [SEQ ID NO 6]	no binding	no binding
QRIKGLHFATSMGYA (also: biotinylated (position not given here), random peptide of the Octet screening) [SEQ ID NO 14]	no binding	no binding
EYISWEYC (also: biotinylated (position not given here), random peptide of the Octet screening) [SEQ ID NO 22]	no binding	no binding
RMRMYSSLRAWKESA (also: biotinylated (position not given here), random peptide of the Octet screening) [SEQ ID NO 3]	no binding	no binding
WCPFGFEGKNCELDVTCNIKNGRCEQFCKNSADNKVVCS (cysteine pairing not given here; also: biotinylated (position not given here), random peptide of the Octet screening) [SEQ ID NO 23]	no binding	no binding
IADKEYTNIFLKFGSGYVS (also: biotinylated (position not given here), random peptide of the Octet screening) [SEQ ID NO 19]	no binding	no binding
EPLMTMKMIRVMRKL (also: biotinylated (position not given here), random peptide of the Octet screening) [SEQ ID NO 8]	no binding	no binding
KKRDARTNYRYMAYS (also: biotinylated (position not given here), random peptide of the Octet screening) [SEQ ID NO 17]	no binding	no binding
TERQMIHKIFALMSG (also: biotinylated (position not given here), random peptide of the Octet screening) [SEQ ID NO 9]	no binding	no binding
WKHHMRKAIPKYEGK (also: biotinylated (position not given here), random peptide of the Octet screening) [SEQ ID NO 12]	no binding	no binding
SPWSWQRQMKKWTPQ (also: biotinylated (position not given here), random peptide of the Octet screening) [SEQ ID NO 15]	no binding	no binding
TTWGMRIRLFERQAR (also: biotinylated (position not given here), random peptide of the Octet screening) [SEQ ID NO 2]	no binding	no binding
SPSWVRPSIMEWRMN (also: biotinylated (position not given here), random peptide of the Octet screening) [SEQ ID NO 5]	no binding	no binding
DMFKSVRQLMMSRGR (also: biotinylated (position not given here), random peptide of the Octet screening) [SEQ ID NO 13]	no binding	no binding
ISRWRLLMGKKSQHD (also: biotinylated (position not given here), random peptide of the Octet screening) [SEQ ID NO 18]	no binding	no binding
EMMKPNYADLIMRKR (also: biotinylated (position not given here), random peptide of the Octet screening) [SEQ ID NO 10]	no binding	no binding
AYRPSTSREHWRRHW (also: biotinylated (position not given here), random peptide of the Octet screening) [SEQ ID NO 16]	no binding	no binding
